Values quoted from earlier work in paper PMC7605336.

Molecular target: Spike protein RBD (SARS-CoV-2) (UniProt P0DTC2)

## SBP1 (ACE2 α1 helix-derived 23-mer peptide) α1 helix (from UniProt Q9BYF1)
  Kd: 0.047 µM
